# According to paper PMC7546529 (Nature microbiology, 2020):
# B1: portal protein (BBRF1 gene-encoded portal complex) (natural protein)
# chain: MFNMNVDESASGALGSSAIPVHPTPASVRLFEILQGKYAYVQGQTIYANLRNPGVFSRQVFTHLFKRAISHCTYDDVLHDWNKFEACIQKRWPSDDSCASRFRESTFESWSTTMKLTVRDLLTTNIYRVLHSRSVLSYERYVDWICATGMVPAVKKPITQELHSKIKSLRDRCVCRELGHERTIRSIGTELYEATKEIIESLNSTFIPQFTEVTIEYLPRSDEYVAYYCGRRIRLHVLFPPAIFAGTVTFDSPVQRLYQNIFMCYRTLEHAKICQLLNTAPLKAIVGHGGRDMYKDILAHLEQNSQRKDPKKELLNLLVKLSENKTISGVTDVVEEFITDASNNLVDRNRLFGQPGETAAQGLKKKVSNTVVKCLTDQINEQFDQINGLEKERELYLKKIRSMESQLQASLGPGGNNPAASAPAAVAAEAASVDILTGSTASAIEKLFNSPSASLGARVSGHNESILNSFVSQYIPPSREMTKDLTELWESELFNTFKLTPVVDNQGQRLYVRYSSDTISILLGPFTYLVAELSPVELVTDVYATLGIVEIIDELYRSSRLAIYIEDLGRKYCPASATGGDHGIRQAPSARGDTEPDHAKSKPARDPPPGAGS
# Target: the molecule itself
# Experiment: cryo-EM structure
protein,measurement,value
B1,stoichiometry N,12
